{
  "source": "patent US9345765B2",
  "about": "“Diagnostic and therapeutic uses of moesin fragments” (SHANGHAI KEXIN BIOTECH CO., LTD., priority 2010, dated 2016)",
  "type_in_all_cases": "cell-based, human",
  "key": {"platelets [1]": {"test_system": "platelets", "assay": "Stimulation of platelet activation: CD62P and CD63 expression in plasma by flow cytometry", "conditions": "for CD62P FD (Mnx) / CD63 FD (Mnx): agent alone in plasma of 12 healthy individuals, final conc. ADP 5 μM, antibody 20 μg/ml, FERM domain 2 mM", "description": "The expressions of CD62P and CD63 are associated with platelet activation. Therefore, these two proteins can be used as indicators to characterize the profile of platelet activation. This experiment was performed in vitro to assess stimulation of platelet activation in the presence of various agents by detecting the expression levels of CD62P and CD63 using CD62P monoclonal antibody and CD63 monoclonal antibody.\nPlasma samples were collected from 12 healthy individuals, and cultured at room temperature in the presence of various agents as described in Table 1 below for several minutes (e.g. 5 mins). The culture conditions were selected so that the platelets can be fully activated within about 10 mins. After that, CD62P monoclonal antibody and CD63 monoclonal antibody labeled with fluorescein isothiocyanate (FITC) were used to detect the expressed CD62P and CD63 in the plasma samples, and the fluorescence density (“FD”) of the plasma samples was detected using flow cytometry of Beckman Coulter EPICS-XL. The expression levels of the CD62P and CD63 were represented by the average value of fluorescence density detected.\nThe agents being tested in this assay are listed in Table 1 below, including ADP which is known as an agent stimulating platelet activation (Group 1), the anti-moesin N-terminal domain antibody (Group 2) and the N-terminal FERM domain of moesin (Group 3) which were both prepared according to Example 1.\nThe concentration of an agent listed in Table 1 is a final concentration of the agent in the plasma sample. A plasma sample without any of the test agents was tested as a control group. The results are listed in Table 1 below and also illustrated in FIG. 6."}, "platelets [2]": {"test_system": "platelets", "assay": "Platelet aggregation assay (Born method, transparency)", "description": "Plasma samples were collected from 6 healthy individuals and mixed with 3.8% sodium citrate in the ratio of 9:1 (v/v) to prevent solidification of the plasma. The mixed plasma samples were then centrifuged to obtain a portion of platelet-rich plasma (“PRP”) and another portion of platelet-poor plasma (“PPP”). The PRP was diluted with PPP to obtain a plasma sample having a platelet count of 5×10^8 per milliliter as a testing plasma sample for later use.\nThe testing plasma sample was incubated in the presence of an inhibitor of platelet activation as described in Table 3 below for several minutes, and thereafter an activator of platelet activation as described in Table 3 below was added therein and the plasma sample was further incubated for another several minutes to obtain a final mixture. The final mixture was detected for blood aggregation by measuring the transparency of the sample using TYXN-91 Intelligent Blood Agglutometer according to the Born methods. The transparency of PRP in the presence of either ADP or antibody against the N-terminal domain of moesin was also detected as positive controls. A negative control containing no inhibitor was also tested.\nThe testing results which was shown as platelet aggregation rate (“PAR”) and platelet aggregation inhibition rate (“PAIR”) are listed in Table 3 below.\nPAR is calculated by, 1) subtracting PPP's transparency with the testing group's transparency, and 2) dividing the result of step 1) by PPP's transparency and then multiplying 100%. PAIR is calculated by, 1) subtracting the PRP group's PAR with the testing group's PAR, and 2) dividing the result of step 1) by the PRP group's PAR and then multiplying 100%.\nThe RGDS was prepared according to a conventional peptide synthesis in solid phase and used herein with a concentration of 10 ug/ml in 0.01M PBS. The moesin fragments and anti-moesin antibodies used in this experiment were prepared according to Example 1. The concentration regarding an inhibitor as described in Table 3 below is a final concentration of the inhibitor in the testing plasma sample, and the concentration regarding the activator of ADP and the antibody against N-terminal FERM domain of moesin also refers to a final concentration in the testing plasma sample."}, "platelets [3]": {"test_system": "platelets", "assay": "Inhibition of platelet activation induced by activators: CD62P and CD63 expression by flow cytometry", "set-up": "key to CD62P FD (Mnx) / CD63 FD (Mnx): mean fluorescence density by flow cytometry", "conditions": "for effect on platelet activation induced by ADP (in words): activator ADP; for effect on platelet activation induced by the antibody against the N-terminal FERM domain of moesin (in words): activator anti-moesin N-terminal domain antibody; for CD62P FD (Mnx) / CD63 FD (Mnx): inhibitor first, n = 12", "description": "This experiment is performed to assess the blocking effect of various inhibitors (i.e. test agents) on the platelet activation induced by various different activators.\nThe plasma samples were collected from 12 healthy individuals, and cultured in the presence of an inhibitor as described in Table 2 below for several minutes (e.g. 5 mins), and thereafter an activator of platelet activation was added therein and the plasma samples were further cultured for another several minutes (e.g. 5 mins). The culture conditions were the same as Example 2. After that, CD62P monoclonal antibody and CD63 monoclonal antibody labeled with FITC were used to detect the expressed CD62P and CD63 in the plasma samples, and the fluorescence density of the plasma samples was detected using flow cytometry of Beckman Coulter EPICS-XL. The expression levels of the CD62P and CD63 were represented by the average value of fluorescence density detected. A control group using 0.01M PBS instead of any inhibitor was also tested.\nThe peptide RGDS is known as an inhibitor of platelet activation that inhibits platelet's activation by competing with platelet activator combined-1 (PAC-1) to bind to glycoprotein (GP) IIb/IIIa complex on the surface of platelets. The RGDS was prepared according to a conventional peptide synthesis in solid phase and used herein with a concentration of 10 mg/ml in 0.01 M PBS. The moesin fragments and anti-moesin antibodies used in this experiment were prepared according to Example 1. As used in this experiment, the anti-moesin N-terminal domain antibody has a concentration of 20 μg/ml in 0.01M PBS, the N-terminal FERM domain has a concentration of 2 mM in 0.01M PBS, and the anti-moesin C-terminal domain has a concentration of 20 μg/ml in 0.01M PBS. The ADP used herein has a concentration of 5 μM in 0.01M PBS. The results are listed in Table 2 below and also illustrated in FIG. 7."}, "[4]": {"conditions": "then activator ADP (50 μl, 5 μM)"}, "[5]": {"conditions": "then activator Anti-moesin N-terminal domain (50 μl, 20 μg/ml)"}, "[6]": {"conditions": "activator ADP (5 μM), inhibitor at final concentration of Table 3, n = 6"}, "[7]": {"conditions": "activator Anti-moesin N-terminal domain antibody (2 μg/mL), n = 6"}},
  "data": [
    {"molecule": "Nc1ncnc2c1ncn2[C@@H]1O[C@H](COP(=O)(O)OP(=O)(O)O)[C@@H](O)[C@H]1O", "note": "[ADP, reference compound]", "values": [
      {"measurement": "CD62P FD (Mnx)", "setting": "platelets [1]", "result": 12.88},
      {"measurement": "CD63 FD (Mnx)", "setting": "platelets [1]", "result": 11.31},
      {"measurement": "PAR (%) of PRP with the activator alone", "setting": "platelets [2]; PRP positive control, no inhibitor, ADP 5 μM or antibody 2 μg/mL, n = 6", "result": 45.62, "unit": "%"}
    ]},
    {"molecule": "RGDS [solid-phase synthesis, reference compound]", "values": [
      {"measurement": "effect on platelet activation induced by ADP (in words)", "setting": "platelets [3]", "result": "can substantially inhibit"},
      {"measurement": "effect on platelet activation induced by the antibody against the N-terminal FERM domain of moesin (in words)", "setting": "platelets [3]", "result": "no blocking effect"},
      {"measurement": "CD62P FD (Mnx)", "setting": "platelets [3]; [4]", "result": 7.04},
      {"measurement": "CD63 FD (Mnx)", "setting": "platelets [3]; [4]", "result": 5.61},
      {"measurement": "CD62P FD (Mnx)", "setting": "platelets [3]; [5]", "result": 17.98},
      {"measurement": "CD63 FD (Mnx)", "setting": "platelets [3]; [5]", "result": 20.13},
      {"measurement": "PAR (%) platelet aggregation rate", "setting": "platelets [2]; [6]", "result": 11.12, "unit": "%"},
      {"measurement": "PAIR platelet aggregation inhibition rate", "setting": "platelets [2]; [7]", "result": 9.77, "unit": "%"},
      {"measurement": "PAR (%) platelet aggregation rate", "setting": "platelets [2]; [7]", "result": 55.55, "unit": "%"},
      {"measurement": "inhibition of platelet aggregation induced by the antibody against the N-terminal FERM domain of moesin (in words)", "setting": "platelets [2]; activator anti-moesin N-terminal domain antibody", "result": "much less inhibiting effect"}
    ]},
    {"molecule": "N-terminal FERM domain of moesin: N-terminal FERM domain of human moesin, amino acid residues 1-297 (SEQ ID NO:2), expressed in E. coli BL21(DE3) (protein, N-terminal FERM domain of human moesin protein) MPKTISVRVTTMDAELEFAIQPNTTGKQLFDQVVKTIGLREVWFFGLQYQDTKGFSTWLKLNKKVTAQDVRKESPLLFKFRAKFYPEDVSEELIQDITQRLFFLQVKEGILNDDIYCPPETAVLLASYAVQSKYGDFNKEVHKSGYLAGDKLLPQRVLEQHKLNKDQWEERIQVWHEEHRGMLREDAVLEYLKIAQDLEMYGVNYFSIKNKKGSELWLGVDALGLNIYEQNDRLTPKIGFPWSEIRNISFNDKKFVIKPIDKKAPDFVFYAPRLRINKRILALCMGNHELYMRRRKP", "values": [
      {"measurement": "CD62P FD (Mnx)", "setting": "platelets [1]", "result": 2.99},
      {"measurement": "CD63 FD (Mnx)", "setting": "platelets [1]", "result": 1.55},
      {"measurement": "stimulation of platelet activation (in words)", "setting": "platelets [1]; agent alone, CD62P and CD63 expression vs control group", "result": "does not stimulate platelet activation"},
      {"measurement": "effect on platelet activation induced by ADP (in words)", "setting": "platelets [3]", "result": "no significant effect"},
      {"measurement": "effect on platelet activation induced by the antibody against the N-terminal FERM domain of moesin (in words)", "setting": "platelets [3]", "result": "can significantly block"},
      {"measurement": "CD62P FD (Mnx)", "setting": "platelets [3]; [4]", "result": 11.38},
      {"measurement": "CD63 FD (Mnx)", "setting": "platelets [3]; [4]", "result": 7.23},
      {"measurement": "CD62P FD (Mnx)", "setting": "platelets [3]; [5]", "result": 5.79},
      {"measurement": "CD63 FD (Mnx)", "setting": "platelets [3]; [5]", "result": 6.30},
      {"measurement": "inhibition of platelet aggregation induced by ADP (in words)", "setting": "platelets [2]; activator ADP", "result": "much less"},
      {"measurement": "PAIR platelet aggregation inhibition rate", "setting": "platelets [2]; [6]", "result": 39.61, "unit": "%"},
      {"measurement": "PAR (%) platelet aggregation rate", "setting": "platelets [2]; [6]", "result": 27.55, "unit": "%"},
      {"measurement": "PAIR platelet aggregation inhibition rate", "setting": "platelets [2]; [7]", "result": "approximately 90%"},
      {"measurement": "PAR (%) platelet aggregation rate", "setting": "platelets [2]; [7]", "result": 6.03, "unit": "%"},
      {"measurement": "PAIR platelet aggregation inhibition rate", "setting": "platelets [2]; activator Anti-moesin N-terminal domain antibody (2 μg/mL), n = 6, listed as N-terminal domain", "result": 90.21, "unit": "%"}
    ]}
  ]
}
